Measured values as given in the supplement of paper PMC5998384.

Legend:
HeLa Kyoto [1] = assay: solubility in G1/S (NP-40 vs SDS abundance) (log2 ratio); higher = more soluble; conditions: cell cycle stage: G1/S
HeLa Kyoto [2] = assay: solubility change mitosis vs G1/S (difference of NP-40 vs SDS log2 ratios) (log2 ratio difference); higher = more soluble in mitosis
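Throughout, for solubility change mitosis vs G1/S (difference of NP-40 vs SDS log2 ratios): synchronized HeLa Kyoto cells (double thymidine block for G1/S, nocodazole release for mitosis), protein amounts in NP-40 versus SDS lysates quantified by mass spectrometry, three biological replicates.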
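Throughout, for solubility in G1/S (NP-40 vs SDS abundance): HeLa Kyoto cells arrested at G1/S by double thymidine block, proteins quantified by TMT10plex mass spectrometry in mild NP-40 versus SDS extracts, three biological replicates.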

MAAELRMILYEDDSVQVQYVDGSTLQLSPCGSEFLFEKSPPVSAHPLEQPERIRQRTHFVISTYREQLQRALDFRNSSATCPFLSETIIPSERKKHIFIDITEVRWPSLDTDGTMIYMESGIVKITSLDGHAYLCLPRSQHEFTVHFLCKVSQKSDSSAVLSETNNKAPKDKLVEKTGKICIRGNLPGQRLKNKENEFHCQIMKSKETLKKMSCVNGTEGREELPSPGTKHTCVYTWVKQCWSVAACPEEWKYPLSLALHFHNKISNMSKIDAHITQSRFLTSDISEERGKVVSVLPRALSLSCPVPHLHRWNFCDSLLQRQSDEYSYPELVKMVWYKGVTYRLTHQNMNSIEIYSGDGSVFKSEGAYFGNYFTYYSIQEGSGKREEKTYSVNNLPPDRPGSPFTVGSLIKQATRILQHCVKMRLSLSHNYRICCWKMVPGINDSNILPLVLKESLIPSVGRFLAYSDDKVHAIFLDGITLTLNWNFSSPIEKRQVNQGLNLGWCKLTFPDGQEQLIQIEHPEPYERYVTTVTSWCRRLTQTSPREMPTHSSSSVLQENWSVASELEKIQKFNLLLENSGILNQISNKKNEQQSFDHYKPGSSETLLGEVNENRVSIALKKTSEILHDIDCLLSNSKK [C5ORF34]
solubility in G1/S (log2) (HeLa Kyoto [1]): -0.136 | solubility change mitosis (log2) (HeLa Kyoto [2]): -0.0287

MPKRSCPFADVAPLQLKVRVSQRELSRGVCAERYSQEVFEKTKRLLFLGAQAYLDHVWDEGCAVVHLPESPKPGPTGAPRAARGQMLIGPDGRLIRSLGQASEADPSGVASIACSSCVRAVDGKAVCGQCERALCGQCVRTCWGCGSVACTLCGLVDCSDMYEKVLCTSCAMFET [SIVA1]
solubility in G1/S (log2) (HeLa Kyoto [1]): -0.0737 | solubility change mitosis (log2) (HeLa Kyoto [2]): -0.098

MSLPLTEEQRKKIEENRQKALARRAEKLLAEQHQRTSSGTSIAGNPFQAKQGPSQNFPRESCKPVSHGVIFKQQNLSSSSNADQRPHDSHSFQAKGIWKKPEEMPTACPGHSPRSQMALTGISPPLAQSPPEVPKQQLLSYELGQGHAQASPEIRFTPFANPTHKPLAKPKSSQETPAHSSGQPPRDAKLEAKTAKASPSGQNISYIHSSSESVTPRTEGRLQQKSGSSVQKGVNSQKGKCVRNGDRFQVLIGYNAELIAVFKTLPSKNYDPDTKTWNFSMNDYSALMKAAQSLPTVNLQPLEWAYGSSESPSTSSEGQAGLPSAPSLSFVKGRCMLISRAYFEADISYSQDLIALFKQMDSRRYDVKTRKWSFLLEEHSKLIAKVRCLPQVQLDPLPTTLTLAFASQLKKTSLSLTPDVPEADLSEVDPKLVSNLMPFQRAGVNFAIAKGGRLLLADDMGLGKTIQAICIAAFYRKEWPLLVVVPSSVRFTWEQAFLRWLPSLSPDCINVVVTGKDRLTAGLINIVSFDLLSKLEKQLKTPFKVVIIDESHFLKNSRTARCRAAMPVLKVAKRVILLSGTPAMSRPAELYTQIIAVKPTFFPQFHAFGLRYCDAKRMPWGWDYSGSSNLGELKLLLEEAVMLRRLKSDVLSQLPAKQRKIVVIAPGRINARTRAALDAAAKEMTTKDKTKQQQKDALILFFNRTAEAKIPSVIEYILDLLESGREKFLVFAHHKVVLDAITQELERKHVQHIRIDGSTSSAEREDLCQQFQLSERHAVAVLSITAANMGLTFSSADLVVFAELFWNPGVLIQAEDRVHRIGQTSSVGIHYLVAKGTADDYLWPLIQEKIKVLAEAGLSETNFSEMTESTDYLYKDPKQQKIYDLFQKSFEKEGSDMELLEAAESFDPGSASGTSGSSSQNMGDTLDESSLTASPQKKRRFEFFDNWDSFTSPL [SMARCAL1]
solubility in G1/S (log2) (HeLa Kyoto [1]): 0.0557 | solubility change mitosis (log2) (HeLa Kyoto [2]): 0.0546

MKGGNADSWQREKLASMESPEEPGASMDENYFVNYTFKDRSHSGRVAQGIMKLCLEEELFADVTISVEGREFQLHRLVLSAQSCFFRSMFTSNLKEAHNRVIVLQDVSESVFQLLVDYIYHGTVKLRAEELQEIYEVSDMYQLTSLFEECSRFLARTVQVGNCLQVMWLADRHSDPELYTAAKHCAKTHLAQLQNTEEFLHLPHRLLTDIISDGVPCSQNPTEAIEAWINFNKEEREAFAESLRTSLKEIGENVHIYLIGKESSRTHSLAVSLHCAEDDSISVSGQNSLCHQITAACKHGGDLYVVGGSIPRRMWKCNNATVDWEWCAPLPRDRLQHTLVSVPGKDAIYSLGGKTLQDTLSNAVIYYRVGDNVWTETTQLEVAVSGAAGANLNGIIYLLGGEENDLDFFTKPSRLIQCFDTETDKCHVKPYVLPFAGRMHAAVHKDLVFIVAEGDSLVCYNPLLDSFTRLCLPEAWSSAPSLWKIASCNGSIYVFRDRYKKGDANTYKLDPATSAVTVTRGIKVLLTNLQFVLA [KBTBD4]
solubility in G1/S (log2) (HeLa Kyoto [1]): -0.0904 | solubility change mitosis (log2) (HeLa Kyoto [2]): -0.161

MAETKIIYHMDEEETPYLVKLPVAPERVTLADFKNVLSNRPVHAYKFFFKSMDQDFGVVKEEIFDDNAKLPCFNGRVVSWLVLAEGAHSDAGSQGTDSHTDLPPPLERTGGIGDSRPPSFHPNVASSRDGMDNETGTESMVSHRRERARRRNREEAARTNGHPRGDRRRDVGLPPDSASTALSSELESSSFVDSDEDGSTSRLSSSTEQSTSSRLIRKHKRRRRKQRLRQADRASSFSSITDSTMSLNIVTVTLNMERHHFLGISIVGQSNDRGDGGIYIGSIMKGGAVAADGRIEPGDMLLQVNDVNFENMSNDDAVRVLREIVSQTGPISLTVAKCWDPTPRSYFTVPRADPVRPIDPAAWLSHTAALTGALPRYGTSPCSSAVTRTSSSSLTSSVPGAPQLEEAPLTVKSDMSAVVRVMQLPDSGLEIRDRMWLKITIANAVIGADVVDWLYTHVEGFKERREARKYASSLLKHGFLRHTVNKITFSEQCYYVFGDLCSNLATLNLNSGSSGTSDQDTLAPLPHPAAPWPLGQGYPYQYPGPPPCFPPAYQDPGFSYGSGSTGSQQSEGSKSSGSTRSSRRAPGREKERRAAGAGGSGSESDHTAPSGVGSSWRERPAGQLSRGSSPRSQASATAPGLPPPHPTTKAYTVVGGPPGGPPVRELAAVPPELTGSRQSFQKAMGNPCEFFVDIM [DVL1]
solubility in G1/S (log2) (HeLa Kyoto [1]): -0.0781 | solubility change mitosis (log2) (HeLa Kyoto [2]): 0.0447

MELGKGKLLRTGLNALHQAVHPIHGLAWTDGNQVVLTDLRLHSGEVKFGDSKVIGQFECVCGLSWAPPVADDTPVLLAVQHEKHVTVWQLCPSPMESSKWLTSQTCEIRGSLPILPQGCVWHPKCAILTVLTAQDVSIFPNVHSDDSQVKADINTQGRIHCACWTQDGLRLVVAVGSSLHSYIWDSAQKTLHRCSSCLVFDVDSHVCSITATVDSQVAIATELPLDKICGLNASETFNIPPNSKDMTPYALPVIGEVRSMDKEATDSETNSEVSVSSSYLEPLDLTHIHFNQHKSEGNSLICLRKKDYLTGTGQDSSHLVLVTFKKAVTMTRKVTIPGILVPDLIAFNLKAHVVAVASNTCNIILIYSVIPSSVPNIQQIRLENTERPKGICFLTDQLLLILVGKQKLTDTTFLPSSKSDQYAISLIVREIMLEEEPSITSGESQTTYSTFSAPLNKANRKKLIESLSPDFCHQNKGLLLTVNTSSQNGRPGRTLIKEIQSPLSSICDGSIALDAEPVTQPASLPRHSSTPDHTSTLEPPRLPQRKNLQSEKETYQLSKEVEILSRNLVEMQRCLSELTNRLHNGKKSSSVYPLSQDLPYVHIIYQKPYYLGPVVEKRAVLLCDGKLRLSTVQQTFGLSLIEMLHDSHWILLSADSEGFIPLTFTATQEIIIRDGSLSRSDVFRDSFSHSPGAVSSLKVFTGLAAPSLDTTGCCNHVDGMA [C2ORF44]
solubility in G1/S (log2) (HeLa Kyoto [1]): -0.00732 | solubility change mitosis (log2) (HeLa Kyoto [2]): -0.0919

ATG2A
solubility in G1/S (log2) (HeLa Kyoto [1]): -0.135 | solubility change mitosis (log2) (HeLa Kyoto [2]): -0.036

MADPVAGIAGSAAKSVRPFRSSEAYVEAMKEDLAEWLNALYGLGLPGGGDGFLTGLATGTTLCQHANAVTEAARALAAARPARGVAFQAHSVVPGSFMARDNVATFIGWCRVELGVPEVLMFETEDLVLRKNEKSVVLCLLEVARRGARLGLLAPRLVQFEQEIERELRAAPPAPNAPAAGEDTTETAPAPGTPARGPRMTPSDLRNLDELVREILGRCTCPDQFPMIKVSEGKYRVGDSSLLIFVRVLRSHVMVRVGGGWDTLEHYLDKHDPCRCSSTAHRPPQPRVCTFSPQRVSPTTSPRPASPVPGSERRGSRPEMTPVSLRSTKEGPETPPRPRDQLPPHPRSRRYSGDSDSSASSAQSGPLGTRSDDTGTGPRRERPSRRLTTGTPASPRRPPALRSQSRDRLDRGRPRGAPGGRGAQLSVPSPARRARSQSREEQAVLLVRRDRDGQHSWVPRGRGSGGSGRSTPQTPRARSPAAPRLSRVSSPSPELGTTPASIFRTPLQLDPQQEQQLFRRLEEEFLANARALEAVASVTPTGPVPDPARAPDPPAPDSAYCSSSSSSSSLSVLGGKCGQPGDSGRTANGLPGPRSQALSSSSDEGSPCPGMGGPLDAPGSPLACTEPSRTWARGRMDTQPDRKPSRIPTPRGPRRPSGPAELGTWHALHSVTPRAEPDSWM [GAS2L1]
solubility in G1/S (log2) (HeLa Kyoto [1]): 0.282 | solubility change mitosis (log2) (HeLa Kyoto [2]): 0.169

MQQESERCRVRARRPDMALYVPKARRGAVLLKTGDEEESCGSPNSVVKEKQKESSLSQKEVFKDKPEARRLNINPDRKEHNCREEKKSSTKLRMDTCLQKTNRVCSKRGTTESKEVLSQGQQQGAPNAGVITNAPLQRHFKPKKVECLEVETTDVTGHERILLSQACLEISEAQVPSKPFQNVEFCDFSRHEPDGEAFEDKDLEGRIETDTKVLEILYEFPRVFSSVMKPENMIVPIKLSSDSEIVQQSMQTSDGILNPSSGGITTTSVPGSPDGVFDQTCVDFEVESVGGIANSTGFILDQKDTDSIPATMGHISLSESTNDTVSPVMIRECEKNDSTADELHVKHEPPDTAVLAHETHRDSGFKNVGDITNKACMMDTTGMSCSDHVTVDSPYVVAVRIADETSINTRSFSKFVGMSADATPLHVARSGNDTEDFSNPSACSDIYGESISSHFTESTGKLIESLSDCASSLPIKKIAGSNYNTFLDSELSMLNGTKVLSDSAVGIDLGSTGDTTEALHELRTAEEFKTEEQDDSGSIEFGVSFPDRESSSMETSIEPKATETSHTEGITAIEESWESMFNDDGDCLDPRLLQEGILMHIKPENHCSKLSGNTKSRESIQEPRSDYYNHEVPDIDLSDCEFPHVIEIYDFPQEFHTEDLLRVFCSYQKKGFDIKWVDDTHALGVFSSPITARDALGIKHTMVKIRPLSQATRAAKAKARAYAEFLQPAKERPETSAALARRLVISALGVRSKQSKTEREAELKKLQEARERKRLEAKQREDIWEGRDQSTV [R3HCC1L]
solubility in G1/S (log2) (HeLa Kyoto [1]): -0.118 | solubility change mitosis (log2) (HeLa Kyoto [2]): 0.112

MDPSADTWDLFSPLISLWINRFYIYLGFAVSISLWICVQIVIKTQGKNLQEKSVPKAAQDLMTNGYVSLQEKDIFVSGVKIFYGSQTGTAKGFATVLAEAVTSLDLPVAIINLKEYDPDDHLIEEVTSKNVCVFLVATYTDGLPTESAEWFCKWLEEASIDFRFGKTYLKGMRYAVFGLGNSAYASHFNKVGKNVDKWLWMLGAHRVMSRGEGDCDVVKSKHGSIEADFRAWKTKFISQLQALQKGERKKSCGGHCKKGKCESHQHGSEEREEGSHEQDELHHRDTEEEEPFESSSEEEFGGEDHQSLNSIVDVEDLGKIMDHVKKEKREKEQQEEKSGLFRNMGRNEDGERRAMITPALREALTKQGYQLIGSHSGVKLCRWTKSMLRGRGGCYKHTFYGIESHRCMETTPSLACANKCVFCWRHHTNPVGTEWRWKMDQPEMILKEAIENHQNMIKQFKGVPGVKAERFEEGMTVKHCALSLVGEPIMYPEINRFLKLLHQCKISSFLVTNAQFPAEIRNLEPVTQLYVSVDASTKDSLKKIDRPLFKDFWQRFLDSLKALAVKQQRTVYRLTLVKAWNVDELQAYAQLVSLGNPDFIEVKGVTYCGESSASSLTMAHVPWHEEVVQFVHELVDLIPEYEIACEHEHSNCLLIAHRKFKIGGEWWTWIDYNRFQELIQEYEDSGGSKTFSAKDYMARTPHWALFGASERGFDPKDTRHQRKNKSKAISGC [TYW1]
solubility in G1/S (log2) (HeLa Kyoto [1]): -0.157 | solubility change mitosis (log2) (HeLa Kyoto [2]): -0.205

MYO9A
solubility in G1/S (log2) (HeLa Kyoto [1]): -0.102 | solubility change mitosis (log2) (HeLa Kyoto [2]): 0.00755
